The values that follow come from the supplement of paper PMC10567573.

The labels stand for the following.
B1: BTBD1 (parent)
chain: TSAEIELPDVEPAAFLALLRFLYS
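Also: lentivirally expressed fusions sorted by FACS into six bins by GFP to DsRed ratio, PSI derived from sequencing read proportions per bin multiplied by bin number.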

The variants in the series derive from B1. The series can be described thus: protein stability index of a GFP-peptide fusion (GPS, HEK-293T) (PSI 1-6); higher = more stable. The settings on record: c terminus: a fixed tail appended.
Regarding TSAEIELADVEPAAFLALLRFLYS [P8A], the protein stability index came to 1.97.

As to TSAEIELEDVEPAAFLALLRFLYS [P8E], the protein stability index worked out at 2.17. In the case of TSAEIELCDVEPAAFLALLRFLYS [P8C], the protein stability index was 1.49. As to TSAEIELDDVEPAAFLALLRFLYS [P8D], the protein stability index amounted to 1.95. The figure for TSAEKELPDVEPAAFLALLRFLYS [I5K] is 2.94. The figure for TSAEDELPDVEPAAFLALLRFLYS [I5D] is 2.44. Under TSAEFELPDVEPAAFLALLRFLYS [I5F] stands 1.78; under TSAEWELPDVEPAAFLALLRFLYS [I5W], 2; under TSAEMELPDVEPAAFLALLRFLYS [I5M], 1.89. TSAEAELPDVEPAAFLALLRFLYS [I5A]: the protein stability index turned out to be 2.06. Under TSAEYELPDVEPAAFLALLRFLYS [I5Y] stands 1.95; under TSAEVELPDVEPAAFLALLRFLYS [I5V], 1.75. Under TSAESELPDVEPAAFLALLRFLYS [I5S] stands 1.94; under TSAEQELPDVEPAAFLALLRFLYS [I5Q], 2.4. Under TSAEEELPDVEPAAFLALLRFLYS [I5E] stands 2.03; under TSAEHELPDVEPAAFLALLRFLYS [I5H], 1.93. As to TSAENELPDVEPAAFLALLRFLYS [I5N], the protein stability index amounted to 2.14. Under TSAERELPDVEPAAFLALLRFLYS [I5R] stands 2.55; under TSAELELPDVEPAAFLALLRFLYS [I5L], 1.75; under TSAEPELPDVEPAAFLALLRFLYS [I5P], 1.68.

As to TSAETELPDVEPAAFLALLRFLYS [I5T], the protein stability index was determined as 2.18. Under TSAEGELPDVEPAAFLALLRFLYS [I5G] stands 2.55; under TSAECELPDVEPAAFLALLRFLYS [I5C], 1.77; under TGAEIELPDVEPAAFLALLRFLYS [S2G], 2.15. The figure for TLAEIELPDVEPAAFLALLRFLYS [S2L] is 1.99; for TKAEIELPDVEPAAFLALLRFLYS [S2K] it is 2.39.

Consider TTAEIELPDVEPAAFLALLRFLYS [S2T], for which the protein stability index turned out to be 1.74.

For TPAEIELPDVEPAAFLALLRFLYS [S2P], the protein stability index turned out to be 2.33. The figure for TRAEIELPDVEPAAFLALLRFLYS [S2R] is 2.09. Under TDAEIELPDVEPAAFLALLRFLYS [S2D] stands 1.61; under TVAEIELPDVEPAAFLALLRFLYS [S2V], 1.87. Under TEAEIELPDVEPAAFLALLRFLYS [S2E] stands 1.65. Regarding THAEIELPDVEPAAFLALLRFLYS [S2H], the protein stability index came out at 1.82.

As to TAAEIELPDVEPAAFLALLRFLYS [S2A], the protein stability index is 1.72. Under TNAEIELPDVEPAAFLALLRFLYS [S2N] stands 1.49; under TFAEIELPDVEPAAFLALLRFLYS [S2F], 2; under TWAEIELPDVEPAAFLALLRFLYS [S2W], 1.91. As to TQAEIELPDVEPAAFLALLRFLYS [S2Q], the protein stability index was found to be 2.24. Under TIAEIELPDVEPAAFLALLRFLYS [S2I] stands 2.07. Under TYAEIELPDVEPAAFLALLRFLYS [S2Y] stands 2.28; under TCAEIELPDVEPAAFLALLRFLYS [S2C], 2.05. Under TMAEIELPDVEPAAFLALLRFLYS [S2M] stands 1.7.

Regarding TSNEIELPDVEPAAFLALLRFLYS [A3N], the protein stability index was found to be 1.96. Under TSLEIELPDVEPAAFLALLRFLYS [A3L] stands 1.53. Under TSYEIELPDVEPAAFLALLRFLYS [A3Y] stands 1.83; under TSKEIELPDVEPAAFLALLRFLYS [A3K], 2.17; under TSFEIELPDVEPAAFLALLRFLYS [A3F], 1.58. The figure for TSCEIELPDVEPAAFLALLRFLYS [A3C] is 1.98; for TSQEIELPDVEPAAFLALLRFLYS [A3Q] it is 2.01. As to TSIEIELPDVEPAAFLALLRFLYS [A3I], the protein stability index is 2.26.

Turning to TSWEIELPDVEPAAFLALLRFLYS [A3W], the protein stability index stood at 1.41. The figure for TSTEIELPDVEPAAFLALLRFLYS [A3T] is 1.99; for TSDEIELPDVEPAAFLALLRFLYS [A3D] it is 2.12; for TSSEIELPDVEPAAFLALLRFLYS [A3S] it is 1.67.

For the variant TSGEIELPDVEPAAFLALLRFLYS [A3G], the protein stability index came to 2.66. The figure for TSPEIELPDVEPAAFLALLRFLYS [A3P] is 2.12; for TSHEIELPDVEPAAFLALLRFLYS [A3H] it is 1.8; for TSMEIELPDVEPAAFLALLRFLYS [A3M] it is 1.52. Under TSVEIELPDVEPAAFLALLRFLYS [A3V] stands 2.27.

Regarding TSREIELPDVEPAAFLALLRFLYS [A3R], the protein stability index turned out to be 2.26. The figure for TSEEIELPDVEPAAFLALLRFLYS [A3E] is 1.91. Under TSASIELPDVEPAAFLALLRFLYS [E4S] stands 1.45. The figure for TSAGIELPDVEPAAFLALLRFLYS [E4G] is 2.07; for TSAHIELPDVEPAAFLALLRFLYS [E4H] it is 1.56. With TSAKIELPDVEPAAFLALLRFLYS [E4K], the protein stability index was 1.17. For the variant TSARIELPDVEPAAFLALLRFLYS [E4R], the protein stability index was determined as 1.59. The figure for TSAFIELPDVEPAAFLALLRFLYS [E4F] is 2.24; for TSATIELPDVEPAAFLALLRFLYS [E4T] it is 1.73. The figure for TSAVIELPDVEPAAFLALLRFLYS [E4V] is 1.55; for TSAAIELPDVEPAAFLALLRFLYS [E4A] it is 1.84; for TSADIELPDVEPAAFLALLRFLYS [E4D] it is 1.66. Consider TSAMIELPDVEPAAFLALLRFLYS [E4M], for which the protein stability index was found to be 1.55. The figure for TSAQIELPDVEPAAFLALLRFLYS [E4Q] is 2.14. The figure for TSANIELPDVEPAAFLALLRFLYS [E4N] is 1.44. Under TSAWIELPDVEPAAFLALLRFLYS [E4W] stands 1.88; under TSALIELPDVEPAAFLALLRFLYS [E4L], 1.91; under TSAYIELPDVEPAAFLALLRFLYS [E4Y], 1.68. TSAPIELPDVEPAAFLALLRFLYS [E4P]: the protein stability index came out at 1.64. Under TSACIELPDVEPAAFLALLRFLYS [E4C] stands 1.8. As to TSAIIELPDVEPAAFLALLRFLYS [E4I], the protein stability index was 2.07. Under TSAEIHLPDVEPAAFLALLRFLYS [E6H] stands 1.78; under TSAEIRLPDVEPAAFLALLRFLYS [E6R], 1.84. Take TSAEIGLPDVEPAAFLALLRFLYS [E6G]: the protein stability index worked out at 1.75. Under TSAEIPLPDVEPAAFLALLRFLYS [E6P] stands 2.31. On to TSAEIMLPDVEPAAFLALLRFLYS [E6M], for which the protein stability index came to 2.22. The figure for TSAEIILPDVEPAAFLALLRFLYS [E6I] is 2.82; for TSAEIFLPDVEPAAFLALLRFLYS [E6F] it is 1.64. Regarding TSAEINLPDVEPAAFLALLRFLYS [E6N], the protein stability index was found to be 1.96.

Turning to TSAEIYLPDVEPAAFLALLRFLYS [E6Y], the protein stability index worked out at 1.74.

Take TSAEIALPDVEPAAFLALLRFLYS [E6A]: the protein stability index is 2.19. Regarding TSAEIQLPDVEPAAFLALLRFLYS [E6Q], the protein stability index came to 2.01. Under TSAEISLPDVEPAAFLALLRFLYS [E6S] stands 2.49. The figure for TSAEITLPDVEPAAFLALLRFLYS [E6T] is 2.1. Under TSAEICLPDVEPAAFLALLRFLYS [E6C] stands 2.3.
